# T1: Diap1 in Cos-7 cells (Drosophila melanogaster, UniProt Q24306)
# T1 construct: expressed in transfected cells; host or cells: Cos-7
# T1 sequence (Q24306 1-438): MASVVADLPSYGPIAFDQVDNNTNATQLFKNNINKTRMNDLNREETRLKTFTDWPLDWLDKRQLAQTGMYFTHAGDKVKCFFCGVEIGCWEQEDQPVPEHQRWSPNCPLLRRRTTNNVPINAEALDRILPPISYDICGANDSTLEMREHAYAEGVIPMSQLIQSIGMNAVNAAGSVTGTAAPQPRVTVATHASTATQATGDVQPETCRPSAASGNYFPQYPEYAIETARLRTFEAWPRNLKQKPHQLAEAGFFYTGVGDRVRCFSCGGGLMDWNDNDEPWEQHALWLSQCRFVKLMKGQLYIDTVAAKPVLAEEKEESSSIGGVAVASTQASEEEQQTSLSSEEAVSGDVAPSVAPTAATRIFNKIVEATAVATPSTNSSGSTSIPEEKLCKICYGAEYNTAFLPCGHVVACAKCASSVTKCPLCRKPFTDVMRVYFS
# B1: Reaper: Drosophila IAP inhibitor (IAPi) protein REAPER, wild type; used as protein or expressed from a transgene/plasmid (protein)
# chain: MAVAFYIPDQATLLREAEQKEQQILRLRESQWRFLATVVLETLRQYTSCHPKTGRKSGKYRKPSQ
# How the values were obtained:
# [1] = biological target: T2, XIAP (Homo sapiens, UniProt P98170); test: In vitro XIAP self-conjugation assay; assay type: biochemical
# T2 construct: Full length xiap was amplified by PCR and subcloned into the EcoRI, ApaI site of this pcDNA3; made in house; host or cells: in vitro transcription-translation system (Promega); UBCH5C from E. coli BL21 (pLysS)
# T2 sequence (P98170 whole entry): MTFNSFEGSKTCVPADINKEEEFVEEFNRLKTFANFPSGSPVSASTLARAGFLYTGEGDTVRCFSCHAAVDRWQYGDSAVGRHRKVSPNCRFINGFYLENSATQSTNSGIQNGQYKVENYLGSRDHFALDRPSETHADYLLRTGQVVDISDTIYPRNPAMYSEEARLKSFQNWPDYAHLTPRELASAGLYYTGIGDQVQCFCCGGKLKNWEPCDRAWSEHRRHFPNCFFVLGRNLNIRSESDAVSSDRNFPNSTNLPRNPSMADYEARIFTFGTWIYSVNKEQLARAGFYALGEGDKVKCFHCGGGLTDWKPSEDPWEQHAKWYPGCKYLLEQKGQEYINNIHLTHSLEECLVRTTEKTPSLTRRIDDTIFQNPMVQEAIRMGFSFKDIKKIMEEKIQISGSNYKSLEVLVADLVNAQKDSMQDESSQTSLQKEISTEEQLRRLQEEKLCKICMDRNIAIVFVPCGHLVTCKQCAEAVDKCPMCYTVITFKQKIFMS
# Method: IAP-E2 Binding Assay for Measuring Self-Conjugation
# ^35S-methionine labeled DIAP1 or XIAP was generated in an in vitro transcription-translation system (Promega) from diap1-pET14b and xiap-pcDNA3.1 respectively. For purification of His-UBCD1 and His-UBCH5C, ubcD1-pET14b and ubcH5C-pT7-7 were expressed in BL21 (pLysS) and purfied on a Ni-column according to the manufacturer's protocol (Novagen). ^35S-DIAP1 or ^35S-XIAP was incubated with purified UBCD1 or UBCH5C respectively in the absence or presence of the W-7, H2-9 or H2-9W7 peptides. Following incubation of 15 min in room temperature in 20 mM Tris pH7.6, 2 mM DTr, Ni-NTA Agarose beads (Qiagen) were added for additional 30 minutes. The beads were subsequently washed four times with the Tis/DTT buffer, eluted with Laemli buffer and subjected to 10% SDS-PAGE. ^35S-DIAP1 or ^35S-XIAP was visualized by Phosphorimaging.
# ^35S-methionine labeled mutant and wild type DIAP1, or wild type XIAP were generated in an in vitro transcription-translation system (Promega) from diap1-pET14b, diap1^21-4S pET14b and xiap pcDNA3.1 plasmids. For purification of His-UBCD1 and His-UBCH5C, ubcD1-pET14b and ubcH5C-pT7-7 were expressed in BL21 (pLysS) and purified on a Ni-column according to the manufacturer's protocol (Novagen). […]
# [2] = biological target: DIAP1 (Drosophila IAP1), wild type, 35S-methionine labeled, in vitro translated from diap1-pET14b (UniProt Q24306)
# [3] = biological target: His-DIAP1 21-4S mutant (RING domain mutant, Cys 406 to Tyr), 35S-methionine labeled, in vitro translated from diap1 21-4S pET14b (UniProt Q24306)
# [4] = tested on: DIAP1; test: In vitro ubiquitination reaction / self-conjugation of 35S-DIAP1; assay type: biochemical, Drosophila; details: 35S-DIAP1 with E1 and ubiquitin
# Method: (§1) In Vitro Ubiquitination Reaction
# ^35S-methionine labeled mutant and wild type DIAP1, or wild type XIAP were generated in an in vitro transcription-translation system (Promega) from diap1-pET14b, diap1^21-4S pET14b and xiap pcDNA3.1 plasmids. For purification of His-UBCD1 and His-UBCH5C, ubcD1-pET14b and ubcH5C-pT7-7 were expressed in BL21 (pLysS) and purified on a Ni-column according to the manufacturer's protocol (Novagen). In vitro ubiquitination assays were carried out in a total volume of 12.5 μl and contained: ^35S-methionine labeled wild type or mutant DIAP1 or Wild type XIAP (approximately 10,000 cpm), and 250 ng E1 (made in baculovirus; vector is the kind gift of Dr. Kaznbiro Iwai, University of Osaka, Osaka Japan). […]
# In order to determine whether both amino acid consensus sequences described above are essential for IAP degradation; peptides were generated, with amino acid sequences as described in Tables 1, 3 and 5 above, containing one of each amino acid consensus sequence, or both and their ability to stimulate in vitro IAP ubiquitination was assessed (FIG. 13). ^35S-methionine labeled wild type DIAP1 was incubated with 250 ng E1 and ubiquitin, with or without the addition of the RPR wild type protein, or peptides containing the RHG amino acid consensus sequence of the RPR HID or GRIM proteins, and the reaction products were resolved by SDS-PAGE.
# [5] = biological target: T2, XIAP; test: In vitro ubiquitination reaction of 35S-XIAP; assay type: biochemical
# Method: as §1
# ^35S-methionine labeled mutant and wild type DIAP1, or wild type XIAP were generated in an in vitro transcription-translation system (Promega) from diap1-pET14b, diap1^21-4S pET14b and xiap pcDNA3.1 plasmids. For purification of His-UBCD1 and His-UBCH5C, ubcD1-pET14b and ubcH5C-pT7-7 were expressed in BL21 (pLysS) and purified on a Ni-column according to the manufacturer's protocol (Novagen). In vitro ubiquitination assays were carried out in a total volume of 12.5 μl and contained: ^35S-methionine labeled wild type or mutant DIAP1 or Wild type XIAP (approximately 10,000 cpm), and 250 ng E1 (made in baculovirus; vector is the kind gift of Dr. Kaznbiro Iwai, University of Osaka, Osaka Japan). Unless otherwise stated, 1.2 μg His-UBCD1 or His-UBCH5C was used in each reaction Reaction mire contained also 40 mM Tris-HCl, pH 7.6, 5 mM MgCl2, 1 mM DTT, 5 μg ubiquitin, 100 ng Ubiquitin-aldehyde, 2 mM ATPγS [Adenosine 5′-O-(3-thiotriphosphate)]. Reactions were incubated for 50 min at 37° C., and resolved, following addition of a sample buffer on SDS-PAGE (10%). Gels were dried and proteins visualized via Phosphorimaging (Fuji, Japan).
# [6] = biological target: T1, Diap1 in Cos-7 cells; test: Cellular stability of DIAP1 (cycloheximide chase, Western blot); assay type: cell-based; details: Cos-7 cells co-transfected with Diap1-Flag and RPR-HA, cycloheximide 30 minute chase
# Method: Cellular Stability of DIAP1
# Cos-7 cells were transfected with 1 μg of wild-type (wt) Diap1-Flag-pcDNA3 along with 1 μg RPR-HA-pcDNA3 or 1 μg pcDNA3 vector (to maintain an equal amount of DNA in all transfections). Transfections were carried out by using FuGene™. 30 h aer transfection, 100 μg cycloheximide (Sigma) was added to each 60 mm dish for 0, 30, 60 min. Cells were harvested and lysed. Equal amount of protein were resolved via SDS-PAGE (10%) and blotted onto riocellulose paper. Diap1 was monitored by Western blot analysis using anti-Diap1 antibody and ECL.
# In order to determine the effect of the IAP inhibitor (IAPi), Reaper's expression on IAP protein stability, a pulse-chase experiment was conducted using Cos-7 cells co-transfected with Diap1-Flag-pcDNA3 and RPR-HA-pcDNA3 or pcDNA3 vector alone treated with cycloheximide for 0, 30 or 60 minutes, followed by cell lysis, and immunoblot analysis.
# [7] = tested on: DIAP1; test: Ectopic expression (Gal4/UAS) in Drosophila imaginal discs and embryos, anti-DIAP1 labeling; assay type: in vivo
# Text: Mitotic recombination was induced in the developing eye imaginal discs using the Flp-FRT method36 and ey-flipase. Gal4/UAS system was used for ectopic expression.
# GST-DIAP16 was expressed in BL21 (pLysS) bacteria, and was gel purified before immunizing rabbits (Cocalico Biologicals). diap1(WT)-pET14b was used to express His-DIAP1 in BL21(pLysS) and was purified according to the manufacturer's protocol (Novagen) and immobilized on nitrocellulose paper to affinity purify anti-DIAP1 antisera Rabbit anti-β-galactosidase antibody (Cappel, ICN), mouse-anti-β-gatosdase antibody (Sigma), monoclonal anti-Engrailed antibody (Developmental Studies Hybridoma Bank), Rabbit CM1 antibody24 and mouse anti-HA antibody (Babco) were used to stain embryos and imaginal discs under standard conditions. For western blots, 6-18 h hour embryos were homogenized in the lysis buffer (20 mM Tris pH 7.5, 100 mM NaCl, 1% NP-40, 2 mM DTT) and the cell debns was spun down. The supernatant was run on 15% SDS-PAGE gels, transferred to nitrocellulose sheets and probed with Rabbit anti-DIAP1 antibody. Western blot was detected with ECL (Amersham).
# IAP degradation in thymocytes is a regulated process, wherein glucocorticoids can trigger IAP degradation by unknown mechanisms. To determine whether DIAP1 degradation is also regulated in Drosophila, we co-expressed the cell death promoting protein RPR and the baculovirus p35 caspase inhibitor^21 in the wing imaginal disc posterior compartment using the engrailed (en)-Gal4 driner^22. Expression of p35 prevented RPR-expressing cells from dying, and the resulting cell population not undergoing apoptosis enabled us to observe cellular changes downstream of RPR. Whereas animals expressing RPR alone died as embryos, those compressing RPR and p35 survived to adulthood with wings indistinguishable from wild type (FIG. 2a). […] The wing imaginal discs were also labeled with CM1 antibody, which detects activated caspase-3 in humans and cross-reacts with activated caspases in Drosophila^23,24. In the control anterior compartment, sporadic apoptotic cells were intensely labeled with CM1.
# Thus, the effect of the RING finger mutations on RPR-dependent DIAP1 degradation in embryos was determined. The protein distribution of DIAP1 was analyzed in embryos that express RPR under the prd-Gal4 driver (FIG. 3a, c). In wild type embryos, DIAP1 is homogenously distributed (FIG. 3b).
molecule,measurement,setting,value
AVAPYIPDQATLLR QWRFLATVVL (AVAFYIPDQATLLRQWRFLATVVL; Drosophila melanogaster) [Peptide R15W],XIAP self-conjugation in vitro,[1],greatest effect
"His-UBCD1 (Drosophila ubiquitin conjugating enzyme UbcD1, purified from E. coli)","in vitro ubiquitination of 35S-DIAP1 (E1, His-UBCD1, ubiquitin; SDS-PAGE, Phosphorimaging)",[2],Wild-type DIAP1 (lane 4) showed marked ubiquitination
same,"in vitro ubiquitination of 35S-DIAP1 (E1, His-UBCD1, ubiquitin; SDS-PAGE, Phosphorimaging)",[3],"the His-DIAP1^21-4S mutant (RING domain mutant) did not (lane 7), in the presence of ubcD1"
AVPFYLPE QWRFLATVVL (AVPFYLPEQWRFLATVVL; Drosophila melanogaster) [Peptide H9-W],XIAP self-conjugation in vitro,[1],greatest effect
B1,IAP (DIAP1) self-conjugation / auto-ubiquitination in vitro,[4],resulted in auto-ubiquitination
same,auto-ubiquitination of human XIAP,[5],strongly stimulated
same,IAP (Diap1) protein level / half-life,[6],dramatic reduction in detectable IAP protein
same,DIAP1 downregulation in embryos,"[7]; RING domain mutant background, diap1 33-1S and diap1 22-8S alleles",no longer able to downregalate DIAP1
same,DIAP1 protein levels in embryos,"[7]; expression under prd-Gal4 driver, wild type diap1",DIAP1 protein levels decrease
same,diap1-lacZ expression,"[7]; wing imaginal disc posterior compartment, co-expressed with p35 under en-Gal4",increased
same,anti-DIAP1 labeling,"[7]; wing imaginal disc posterior compartment, co-expressed with p35 under en-Gal4, compared to anterior compartment",reduced anti-DIAP1 labeling
